Target: the molecule itself
Assay: crystal structure

B1: N-(His)10-tagged CalG3 (native) (enzyme, Micromonospora echinospora, UniProt Q8KND7 1-376, looked up)
chain: MLFVSSPGIGHLFPLIQLAWGFRTAGHDVLIAVAEHADRAAAAGLEVVDVAPDYSAVKVFEQVAKDNPRFAETVATRPAIDLEEWGVQIAAVNRPLVDGTMALVDDYRPDLVVYEQGATVGLLAADRAGVPAVQRNQSAWRTRGMHRSIASFLTDLMDKHQVSLPEPVATIESFPPSLLLEAEPEGWFMRWVPYGGGAVLGDRLPPVPARPEVAITMGTIELQAFGIGAVEPIIAAAGEVDADFVLALGDLDISPLGTLPRNVRAVGWTPLHTLLRTCTAVVHHGGGGTVMTAIDAGIPQLLAPDPRDQFQHTAREAVSRRGIGLVSTSDKVDADLLRRLIGDESLRTAAREVREEMVALPTPAETVRRIVERISG
- stoichiometry N: 2

Reference: publication PMC2965851 (Chemistry & biology, 2008)
